Drawing on the supplement of paper PMC10567573, this text covers protein stability index for 94 variants.

B1: C1orf55 (parent)
chain: FTSPDYQQQCHEMAERLEDSVLKG
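Further: lentivirally expressed fusions sorted by FACS into six bins by GFP to DsRed ratio, PSI derived from sequencing read proportions per bin multiplied by bin number.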

This data set covers variants of B1. Kind of data set: protein stability index of a GFP-peptide fusion (GPS, HEK-293T) (PSI 1-6); higher = more stable. The following applies: c terminus: a fixed tail appended.
For the variant FTSPTYQQQCHEMAERLEDSVLKG [D5T], the protein stability index came to 2.17.
On to FTSPQYQQQCHEMAERLEDSVLKG [D5Q], for which the protein stability index came out at 2.29.
Turning to FTSPYYQQQCHEMAERLEDSVLKG [D5Y], the protein stability index came to 2.28.
In the case of FTSPEYQQQCHEMAERLEDSVLKG [D5E] it was 2.41; in that of FTSPAYQQQCHEMAERLEDSVLKG [D5A], 2.15.
Then FTSPHYQQQCHEMAERLEDSVLKG [D5H], with 2.03; and FTSPIYQQQCHEMAERLEDSVLKG [D5I], with 2.15; and FTSPSYQQQCHEMAERLEDSVLKG [D5S], with 1.81.
FTSPFYQQQCHEMAERLEDSVLKG [D5F]: the protein stability index came to 2.09.
In the case of FTSPVYQQQCHEMAERLEDSVLKG [D5V] it was 1.86.
As to FTSPKYQQQCHEMAERLEDSVLKG [D5K], the protein stability index amounted to 2.57.
In the case of FTSPWYQQQCHEMAERLEDSVLKG [D5W] it was 2.62; in that of FTSPNYQQQCHEMAERLEDSVLKG [D5N], 2.47.
In the case of FTSPRYQQQCHEMAERLEDSVLKG [D5R] it was 2.03; in that of FTSPPYQQQCHEMAERLEDSVLKG [D5P], 2.94.
Then FTSPCYQQQCHEMAERLEDSVLKG [D5C], with 3.59; and FTSPGYQQQCHEMAERLEDSVLKG [D5G], with 1.8.
FTSPLYQQQCHEMAERLEDSVLKG [D5L]: the protein stability index amounted to 2.33.
Then FTSPMYQQQCHEMAERLEDSVLKG [D5M], with 2.12; and FTSPDEQQQCHEMAERLEDSVLKG [Y6E], with 5.43; and FTSPDTQQQCHEMAERLEDSVLKG [Y6T], with 4.41.
In the case of FTSPDPQQQCHEMAERLEDSVLKG [Y6P] it was 4.14; in that of FTSPDCQQQCHEMAERLEDSVLKG [Y6C], 4.51.
Then FTSPDDQQQCHEMAERLEDSVLKG [Y6D], with 4.95.
As for FTSPDKQQQCHEMAERLEDSVLKG [Y6K], the protein stability index worked out at 4.44.
Consider FTSPDIQQQCHEMAERLEDSVLKG [Y6I], for which the protein stability index was found to be 3.94.
For the variant FTSPDHQQQCHEMAERLEDSVLKG [Y6H], the protein stability index turned out to be 4.48.
In the case of FTSPDWQQQCHEMAERLEDSVLKG [Y6W] it was 3.06; in that of FTSPDNQQQCHEMAERLEDSVLKG [Y6N], 4.27.
In the case of FTSPDVQQQCHEMAERLEDSVLKG [Y6V] it was 4.37.
Then FTSPDLQQQCHEMAERLEDSVLKG [Y6L], with 4.3; and FTSPDGQQQCHEMAERLEDSVLKG [Y6G], with 4.76.
In the case of FTSPDAQQQCHEMAERLEDSVLKG [Y6A], the protein stability index stood at 4.56.
Regarding FTSPDQQQQCHEMAERLEDSVLKG [Y6Q], the protein stability index was found to be 4.78.
As to FTSPDFQQQCHEMAERLEDSVLKG [Y6F], the protein stability index worked out at 1.84.
Then FTSPDMQQQCHEMAERLEDSVLKG [Y6M], with 3.94; and FTSPDSQQQCHEMAERLEDSVLKG [Y6S], with 4.63; and FTSPDRQQQCHEMAERLEDSVLKG [Y6R], with 4.24.
Then FTSHDYQQQCHEMAERLEDSVLKG [P4H], with 2.63; and FTSRDYQQQCHEMAERLEDSVLKG [P4R], with 2.8.
As to FTSDDYQQQCHEMAERLEDSVLKG [P4D], the protein stability index was 4.06.
Turning to FTSLDYQQQCHEMAERLEDSVLKG [P4L], the protein stability index was 2.18.
In the case of FTSIDYQQQCHEMAERLEDSVLKG [P4I] it was 2.37.
With FTSNDYQQQCHEMAERLEDSVLKG [P4N], the protein stability index came to 2.52.
Then FTSEDYQQQCHEMAERLEDSVLKG [P4E], with 4.3.
FTSCDYQQQCHEMAERLEDSVLKG [P4C]: the protein stability index came to 2.87.
Then FTSGDYQQQCHEMAERLEDSVLKG [P4G], with 2.06; and FTSADYQQQCHEMAERLEDSVLKG [P4A], with 2.37.
Take FTSKDYQQQCHEMAERLEDSVLKG [P4K]: the protein stability index turned out to be 2.41.
In the case of FTSWDYQQQCHEMAERLEDSVLKG [P4W] it was 2.61; in that of FTSSDYQQQCHEMAERLEDSVLKG [P4S], 2.26; in that of FTSMDYQQQCHEMAERLEDSVLKG [P4M], 2.23.
On to FTSTDYQQQCHEMAERLEDSVLKG [P4T], for which the protein stability index turned out to be 2.06.
With FTSVDYQQQCHEMAERLEDSVLKG [P4V], the protein stability index was 2.09.
FTSQDYQQQCHEMAERLEDSVLKG [P4Q]: the protein stability index was 2.62.
In the case of FTSYDYQQQCHEMAERLEDSVLKG [P4Y], the protein stability index came out at 1.98.
FTSFDYQQQCHEMAERLEDSVLKG [P4F]: the protein stability index stood at 2.6.
For FTGPDYQQQCHEMAERLEDSVLKG [S3G], the protein stability index was 1.76.
With FTFPDYQQQCHEMAERLEDSVLKG [S3F], the protein stability index is 3.06.
For FTWPDYQQQCHEMAERLEDSVLKG [S3W], the protein stability index came out at 2.24.
Turning to FTTPDYQQQCHEMAERLEDSVLKG [S3T], the protein stability index was 2.52.
Then FTPPDYQQQCHEMAERLEDSVLKG [S3P], with 3.61; and FTNPDYQQQCHEMAERLEDSVLKG [S3N], with 2.75.
For FTKPDYQQQCHEMAERLEDSVLKG [S3K], the protein stability index came out at 3.47.
Consider FTVPDYQQQCHEMAERLEDSVLKG [S3V], for which the protein stability index is 3.92.
In the case of FTIPDYQQQCHEMAERLEDSVLKG [S3I] it was 3.73; in that of FTAPDYQQQCHEMAERLEDSVLKG [S3A], 2.89.
On to FTHPDYQQQCHEMAERLEDSVLKG [S3H], for which the protein stability index is 3.34.
Take FTLPDYQQQCHEMAERLEDSVLKG [S3L]: the protein stability index was 3.23.
On to FTCPDYQQQCHEMAERLEDSVLKG [S3C], for which the protein stability index was 2.83.
In the case of FTYPDYQQQCHEMAERLEDSVLKG [S3Y] it was 3.13.
Then FTMPDYQQQCHEMAERLEDSVLKG [S3M], with 2.96; and FTQPDYQQQCHEMAERLEDSVLKG [S3Q], with 3.1.
In the case of FTEPDYQQQCHEMAERLEDSVLKG [S3E] it was 4.12.
Consider FTDPDYQQQCHEMAERLEDSVLKG [S3D], for which the protein stability index stood at 3.25.
In the case of FTRPDYQQQCHEMAERLEDSVLKG [S3R] it was 2.54; in that of FISPDYQQQCHEMAERLEDSVLKG [T2I], 2.14.
Consider FSSPDYQQQCHEMAERLEDSVLKG [T2S], for which the protein stability index came out at 3.39.
In the case of FLSPDYQQQCHEMAERLEDSVLKG [T2L], the protein stability index was 3.48.
In the case of FPSPDYQQQCHEMAERLEDSVLKG [T2P] it was 3.77.
Take FASPDYQQQCHEMAERLEDSVLKG [T2A]: the protein stability index was found to be 2.62.
Regarding FESPDYQQQCHEMAERLEDSVLKG [T2E], the protein stability index turned out to be 4.24.
Regarding FMSPDYQQQCHEMAERLEDSVLKG [T2M], the protein stability index was 3.79.
Turning to FYSPDYQQQCHEMAERLEDSVLKG [T2Y], the protein stability index came to 2.88.
Consider FQSPDYQQQCHEMAERLEDSVLKG [T2Q], for which the protein stability index turned out to be 2.87.
Turning to FDSPDYQQQCHEMAERLEDSVLKG [T2D], the protein stability index came to 4.63.
For the variant FWSPDYQQQCHEMAERLEDSVLKG [T2W], the protein stability index was found to be 3.04.
Then FRSPDYQQQCHEMAERLEDSVLKG [T2R], with 4.16; and FNSPDYQQQCHEMAERLEDSVLKG [T2N], with 4.04.
In the case of FVSPDYQQQCHEMAERLEDSVLKG [T2V] it was 2.45; in that of FGSPDYQQQCHEMAERLEDSVLKG [T2G], 3.24.
Then FKSPDYQQQCHEMAERLEDSVLKG [T2K], with 3.92.
FFSPDYQQQCHEMAERLEDSVLKG [T2F]: the protein stability index amounted to 3.69.
Regarding FHSPDYQQQCHEMAERLEDSVLKG [T2H], the protein stability index was 2.25.
